What was measured:
GPBP1 eAT-hook (eAT) [1] = target: T1, GPBP1 eAT-hook (eAT) (Homo sapiens, UniProt D4PHA4 38-80); assay: MST
T1 chain: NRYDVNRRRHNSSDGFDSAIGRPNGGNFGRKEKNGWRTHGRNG

GPBP1 eAT-hook (eAT) [2] = target: T1, GPBP1 eAT-hook (eAT); assay: MST competition
PTOV1 eATmut [3] = target: T2, PTOV1 eATmut (Homo sapiens, UniProt Q86YD1 1-43, R20D;R22D); assay: EMSA
T2 chain: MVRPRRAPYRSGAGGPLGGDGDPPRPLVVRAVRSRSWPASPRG

GPBP1 eAT-hook (eAT) [4] = target: T1, GPBP1 eAT-hook (eAT); assay: MST
GPBP1 eATmut = target: T3, GPBP1 eATmut (Homo sapiens, UniProt D4PHA4 38-80, R59D); assay: MST
T3 chain: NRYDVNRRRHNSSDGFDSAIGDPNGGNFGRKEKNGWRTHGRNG

PTOV1 eATmut [5] = target: T2, PTOV1 eATmut; assay: MST

GAGAAACCGUGUAAACAAAACAUAACUGAGAGG (structured_RNA) [RNA2]
apparent K (half saturation) (GPBP1 eAT-hook (eAT) [1]): 938 ± 92 nM

AGUUCCAUGAUGUUUUCAAACUCUAUUACCUACAUUAUUUGAAC (structured_RNA) [RNA1]
apparent K (half saturation) (GPBP1 eAT-hook (eAT) [1]): 378 ± 18 nM | apparent K (half saturation) (GPBP1 eAT-hook (eAT) [2]): 373 ± 19 nM

B1: rDNA En (gel shift) (dsDNA)
DNA 1: TGGATCTTTTTTTTTTTTTTTCTTTTTTCCTCCA
DNA 2: TGGAGGAAAAAAGAAAAAAAAAAAAAAAGATCCA
binding result (PTOV1 eATmut [3]): no binding

B2: rDNA En (MST) (dsDNA)
DNA 1: TCTTTTTTTTTTTTTTTCTTTTTTCCTCC
DNA 2: GGAGGAAAAAAGAAAAAAAAAAAAAAAGA
apparent K (half saturation) (GPBP1 eAT-hook (eAT) [4]): 7 ± 1.7 µM | binding result (GPBP1 eATmut): no binding | binding result (PTOV1 eATmut [5]): no binding
